Measured values taken from article PMC7763487 (2020).

B1: (Flag)3-TET1 full-length Δ1+2 (Δ109–120 + Δ1132–1202) [mouse] / (HA)3-NANOG [mouse] (parent complex)
chain 1: MSRSRPAKPSKSVKTKLQKKKDIQMKTKTSKQAVRHGASAKAVNPGKPKQLIKRRDGKKETEDKTPTPAPSFLTRAGAARMNRDRNQVLFQNPDSLTCNGFTMALRRTTPKPKKVPPSKKQCTHNIQDEPGVKHSENDSVPSQHATVSPGTENGEQNRCLVEGESQEITQSCPVFEERIEDTQSCISASGNLEAEISWPLEGTHCEELLSHQTSDNECTSPQECAPLPQRSTSEVTSQKNTSNQLADLSSQVESIKLSDPSPNPTGSDHNGFPDSSFRIVPELDLKTCMPLDESVYPTALIRFILAGSQPDVFDTKPQEKTLITTPEQVGSHPNQVLDATSVLGQAFSTLPLQWGFSGANLVQVEALGKGSDSPEDLGAITMLNQQETVAMDMDRNATPDLPIFLPKPPNTVATYSSPLLGPEPHSSTSCGLEVQGATPILTLDSGHTPQLPPNPESSSVPLVIAANGTRAEKQFGTSLFPAVPQGFTVAAENEVQHAPLDLTQGSQAAPSKLEGEISRVSITGSADVKATAMSMPVTQASTSSPPCNSTPPMVERRKRKACGVCEPCQQKANCGECTYCKNRKNSHQICKKRKCEVLKKKPEATSQAQVTKENKRPQREKKPKVLKTDFNNKPVNGPKSESMDCSRRGHGEEEQRLDLITHPLENVRKNAGGMTGIEVEKWAPNKKSHLAEGQVKGSCDANLTGVENPQPSEDDKQQTNPSPTFAQTIRNGMKNVHCLPTDTHLPLNKLNHEEFSKALGNNSSKLLTDPSNCKDAMSVTTSGGECDHLKGPRNTLLFQKPGLNCRSGAEPTIFNNHPNTHSAGSRPHPPEKVPNKEPKDGSPVQPSLLSLMKDRRLTLEQVVAIEALTQLSEAPSESSSPSKPEKDEEAHQKTASLLNSCKAILHSVRKDLQDPNVQGKGLHHDTVVFNGQNRTFKSPDSFATNQALIKSQGYPSSPTAEKKGAAGGRAPFDGFENSHPLPIESHNLENCSQVLSCDQNLSSHDPSCQDAPYSQIEEDVAAQLTQLASTINHINAEVRNAESTPESLVAKNTKQKHSQEKRMVHQKPPSSTQTKPSVPSAKPKKAQKKARATPHANKRKKKPPARSSQENDQKKQEQLAKEKVKVEPSDSLPTCQFKTESGGQTFAEPADNSQGQPMVSVNQEAHPLPQSPPSNQCANIMAGAAQTQFHLGAQENLVHQIPPPTLPGTSPDTLLPDPASILRKGKVLHFDGITVVTEKREAQTSSNGPLGPTTDSAQSEFKESIMDLLSKPAKNLIAGLKEQEAAPCDCDGGTQKEKGPYYTHLGAGPSVAAVRELMETRFGQKGKAIRIEKIVFTGKEGKSSQGCPVAKWVIRRSGPEEKLICLVRERVDHHCSTAVIVVLILLWEGIPRLMADRLYKELTENLRSYSGHPTDRRCTLNKKRTCTCQGIDPKTCGASFSFGCSWSMYFNGCKFGRSENPRKFRLAPNYPLHNYYKRITGMSSEGSDVKTGWIIPDRKTLISREEKQLEKNLQELATVLAPLYKQMAPVAYQNQVEYEEVAGDCRLGNEEGRPFSGVTCCMDFCAHSHKDIHNMHNGSTVVCTLIRADGRDTNCPEDEQLHVLPLYRLADTDEFGSVEGMKAKIKSGAIQVNGPTRKRRLRFTEPVPRCGKRAKMKQNHNKSGSHNTKSFSSASSTSHLVKDESTDFCPLQASSAETSTCTYSKTASGGFAETSSILHCTMPSGAHSGANAAAGECTGTVQPAEVAAHPHQSLPTADSPVHAEPLTSPSEQLTSNQSNQQLPLLSNSQKLASCQVEDERHPEADEPQHPEDDNLPQLDEFWSDSEEIYADPSFGGVAIAPIHGSVLIECARKELHATTSLRSPKRGVPFRVSLVFYQHKSLNKPNHGFDINKIKCKCKKVTKKKPADRECPDVSPEANLSHQIPSRVASTLTRDNVVTVSPYSLTHVAGPYNRWV
chain 2: MSVGLPGPHSLPSSEEASNSGNASSMPAVFHPENYSCLQGSATEMLCTEAASPRPSSEDLPLQGSPDSSTSPKQKLSSPEADKGPEEEENKVLARKQKMRTVFSQAQLCALKDRFQKQKYLSLQQMQELSSILNLSYKQVKTWFQNQRMKCKRWQKNQWLKTSNGLIQKGSAPVEYPSIHCSYPQGYLVNASGSLSMWGSQTWTNPTWSSQTWTNPTWNNQTWTNPTWSSQAWTAQSWNGQPWNAAPLHNFGEDFLQPYVQLQQNFSASDLEVNLEATRESHAHFSTPQALELFLNYSVTPPGEI

Variants of: B1
Experiment: co-immunoprecipitation (anti-Flag IP), quantified immunoblot; E14/T ESCs; parent: 0.29; read off a plot

Row | Variant | screen value
1 | chain 1 F1440A, chain 1 F1442A, chain 1 W1446A, chain 1 Y1449A, chain 1 F1450A, chain 1 F1455A, chain 1 F1464A | ~0.065
